Results published in patent US5238825A, “Preparation and use of a cyclodextrinase for preparing maltooligosaccharides” (Kikkoman Corporation, priority 1989, dated 1993).

Columns and labels:
Details in all cases: other: substrate of Bacillus sphaericus cyclodextrinase; pH 7.5; 40.0 °C
[1] = substrate: OC[C@H]1O[C@H](O[C@H]2[C@H](O)[C@@H](O)[C@@H](O[C@H]3[C@H](O)[C@@H](O)[C@@H](O[C@H]4[C@H](O)[C@@H](O)C(O)O[C@@H]4CO)O[C@@H]3CO)O[C@@H]2CO)[C@H](O)[C@@H](O)[C@@H]1O; assay: purified protein, by the assay type
[2] = substrate: OC[C@H]1O[C@@H]2O[C@H]3[C@H](O)[C@@H](O)[C@@H](O[C@H]4[C@H](O)[C@@H](O)[C@@H](O[C@H]5[C@H](O)[C@@H](O)[C@@H](O[C@H]6[C@H](O)[C@@H](O)[C@@H](O[C@H]7[C@H](O)[C@@H](O)[C@@H](O[C@H]8[C@H](O)[C@@H](O)[C@@H](O[C@H]1[C@H](O)[C@H]2O)O[C@@H]8CO)O[C@@H]7CO)O[C@@H]6CO)O[C@@H]5CO)O[C@@H]4CO)O[C@@H]3CO; assay: purified protein, by the assay type
[3] = substrate: OC[C@H]1O[C@@H]2O[C@H]3[C@H](O)[C@@H](O)[C@@H](O[C@H]4[C@H](O)[C@@H](O)[C@@H](O[C@H]5[C@H](O)[C@@H](O)[C@@H](O[C@H]6[C@H](O)[C@@H](O)[C@@H](O[C@H]7[C@H](O)[C@@H](O)[C@@H](O[C@H]8[C@H](O)[C@@H](O)[C@@H](O[C@H]9[C@H](O)[C@@H](O)[C@@H](O[C@H]1[C@H](O)[C@H]2O)O[C@@H]9CO)O[C@@H]8CO)O[C@@H]7CO)O[C@@H]6CO)O[C@@H]5CO)O[C@@H]4CO)O[C@@H]3CO; assay: purified protein, by the assay type
[4] = substrate: OC[C@H]1O[C@H](O[C@H]2[C@H](O)[C@@H](O)[C@@H](O[C@H]3[C@H](O)[C@@H](O)[C@@H](O[C@H]4[C@H](O)[C@@H](O)[C@@H](O[C@H]5[C@H](O)[C@@H](O)[C@@H](O[C@H]6[C@H](O)[C@@H](O)C(O)O[C@@H]6CO)O[C@@H]5CO)O[C@@H]4CO)O[C@@H]3CO)O[C@@H]2CO)[C@H](O)[C@@H](O)[C@@H]1O; assay: purified protein, by the assay type
[5] = substrate: OC[C@H]1O[C@@H]2O[C@H]3[C@H](O)[C@@H](O)[C@@H](O[C@H]4[C@H](O)[C@@H](O)[C@@H](O[C@H]5[C@H](O)[C@@H](O)[C@@H](O[C@H]6[C@H](O)[C@@H](O)[C@@H](O[C@H]7[C@H](O)[C@@H](O)[C@@H](O[C@H]1[C@H](O)[C@H]2O)O[C@@H]7CO)O[C@@H]6CO)O[C@@H]5CO)O[C@@H]4CO)O[C@@H]3CO; assay: Reaction rate parameters of the present enzyme for cyclodextrins and maltooligosaccharides; format: biochemical
Method: (§1) When the amount of the enzyme was small, the reducing power of the enzyme was determined according to Nelson-Somogyi's method, with glucose as standard.

[6] = substrate: OC[C@H]1O[C@H](O[C@H]2[C@H](O)[C@@H](O)[C@@H](O[C@H]3[C@H](O)[C@@H](O)[C@@H](O[C@H]4[C@H](O)[C@@H](O)[C@@H](O[C@H]5[C@H](O)[C@@H](O)C(O)O[C@@H]5CO)O[C@@H]4CO)O[C@@H]3CO)O[C@@H]2CO)[C@H](O)[C@@H](O)[C@@H]1O; assay: as above; format: biochemical
Method: as §1

[7] = substrate: OC[C@H]1O[C@H](O[C@H]2[C@H](O)[C@@H](O)[C@@H](O[C@H]3[C@H](O)[C@@H](O)[C@@H](O[C@H]4[C@H](O)[C@@H](O)[C@@H](O[C@H]5[C@H](O)[C@@H](O)[C@@H](O[C@H]6[C@H](O)[C@@H](O)[C@@H](O[C@H]7[C@H](O)[C@@H](O)C(O)O[C@@H]7CO)O[C@@H]6CO)O[C@@H]5CO)O[C@@H]4CO)O[C@@H]3CO)O[C@@H]2CO)[C@H](O)[C@@H](O)[C@@H]1O; assay: as above; format: biochemical
Method: as §1

B1: cyclodextrinase (Lysinibacillus sphaericus) (protein)
chain: MIMLEAVYHRMGQNWSYAYNDSTLHIRIRTKRDNVPRIDLHCGEKYDPEKYKETIPMERMASDGLFDYWQAAVQPRYRRLVYYFALHSDNGDAVYFMEKGFFDQPPKVMYEGLFDFPYLNRQDVHTPPAWVKEAIFYQIFPERFANGDPSNDPEGVQEWGGTPSAGNFFGGDLQGVIDHLDYLSDLGVNALYFNPLFAATTNHKYDTADYMKIDPQFGTNEKLKELVDACHARGMRVLLDAVFNHCGHTFPPFVDVLNNGLNSRYADWFHVREWPLRVVDGIPTYDTFAFEPIMPKLNTGNEEVKAYLLNVGRYWLEEMGLDGWRLDVANEVDHQFWREFRSEIKRINPSAYILGEIMHDSMPWLQGDQFDAVMNYPFTNILLNFFARRLTNAAEFAQAIGTQLAGYPQQVTEVSFNLLGSHDTTRLLTLCSGNVERMKLATLFQLTYQGTPCIYYGDEIGMDGEYDPLNRKCMEWDKSKQNTELLAFFRSMISLRKAHPALRGSGLRFLPVLEHPQLLVYERWDDNERFLIMLNNEDAPVNVVIPAAQPGASWRTVNGEPCAVVEESSIQAALPPYGYAILHAPIAGTAE
notes: is cultured in a medium to yield and accumulate said cyclodextrinase, and this enzyme is collected from the culture; made in house; host or cells: Bacillus sphaericus E-244 (FERM BP-2458), the natural wild-type producer strain; not recombinant
**Q.** Which results are given for B1?
**A.** Km [1]: 1540 µM; Km [2]: 380 µM; Km [3]: 1430 µM; Km [4]: 1110 µM; Km [5]: 710 µM; Km [6]: 950 µM; Km [7]: 690 µM
